From IntAct's records for PubMed 21376235

B1: RNA polymerase II-associated protein 1 (Saccharomyces cerevisiae), P38351 (parent)
chain: MSKKQEYIAPIKYQNSLPVPQLPPKLLVYPESPETNADSSQLINSLYIKTNVTNLIQQDEDLGMPVDLMKFPGLLNKLDSKLLYGFDNVKLDKDDRILLRDPRIDRLTKTDISKVTFLRRTEYVSNTIAAHDNTSLKRKRRLDDGDSDDENLDVNHIISRVEGTFNKTDKWQHPVKKGVKMVKKWDLLPDTASMDQVYFILKFMGSASLDTKEKKSLNTGIFRPVELEEDEWISMYATDHKDSAILENELEKGMDEMDDDSHEGKIYKFKRIRDYDMKQVAEKPMTELAIRLNDKDGIAYYKPLRSKIELRRRRVNDIIKPLVKEHDIDQLNVTLRNPSTKEANIRDKLRMKFDPINFATVDEEDDEDEEQPEDVKKESEGDSKTEGSEQEGENEKDEEIKQEKENEQDEENKQDENRAADTPETSDAVHTEQKPEEEKETLQEE
partner: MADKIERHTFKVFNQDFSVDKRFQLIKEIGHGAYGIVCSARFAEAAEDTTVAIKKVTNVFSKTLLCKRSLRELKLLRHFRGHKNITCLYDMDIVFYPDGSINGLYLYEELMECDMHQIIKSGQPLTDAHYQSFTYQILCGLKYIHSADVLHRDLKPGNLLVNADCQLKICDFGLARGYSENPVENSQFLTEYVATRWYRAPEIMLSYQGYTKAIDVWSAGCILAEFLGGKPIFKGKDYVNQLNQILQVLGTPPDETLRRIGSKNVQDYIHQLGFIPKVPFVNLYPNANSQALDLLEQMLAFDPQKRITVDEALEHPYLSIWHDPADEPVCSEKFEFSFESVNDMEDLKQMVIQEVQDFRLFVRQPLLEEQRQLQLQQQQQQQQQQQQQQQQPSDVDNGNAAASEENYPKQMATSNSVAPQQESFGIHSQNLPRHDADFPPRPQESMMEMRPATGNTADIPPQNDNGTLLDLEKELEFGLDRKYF

Variants of: B1
Settings: with slt2_yeast SLT2, Q00772

Variant | effect of a mutation on the interaction
MSKKQEYIAPIKYQNSLPVPQLPPKLLVYPESPETNADSSQLINSLYIKTNVTNLIQQDEDLGMPVDLMKFPGLLNKLDSKLLYGFDNVKLDKDDRILLRDPRIDRLTKTDISKVTFLRRTEYVSNTIAAHDNTSLKRKRRLDDGDSDDENLDVNHIISRVEGTFNKTDKWQHPVKKGVKMVKKWDLLPDAAFMDQVYFILKFMGSASLDTKEKKSLNTGIFRPVELEEDEWISMYATDHKDSAILENELEKGMDEMDDDSHEGKIYKFKRIRDYDMKQVAEKPMTELAIRLNDKDGIAYYKPLRSKIELRRRRVNDIIKPLVKEHDIDQLNVTLRNPSTKEANIRDKLRMKFDPINFATVDEEDDEDEEQPEDVKKESEGDSKTEGSEQEGENEKDEEIKQEKENEQDEENKQDENRAADTPETSDAVHTEQKPEEEKETLQEE [T191A;S193F] | decreasing interaction
